Patent publication US20210371529A1 (Innovent, published 2021)
Substitutions are numbered along the chain they refer to.

T1: LAG-3 on activated human CD4+ T cells (human, UniProt P18627 23-525)
T1 construct: whole, on cells; also called endogenous LAG-3
T1 sequence (looked up): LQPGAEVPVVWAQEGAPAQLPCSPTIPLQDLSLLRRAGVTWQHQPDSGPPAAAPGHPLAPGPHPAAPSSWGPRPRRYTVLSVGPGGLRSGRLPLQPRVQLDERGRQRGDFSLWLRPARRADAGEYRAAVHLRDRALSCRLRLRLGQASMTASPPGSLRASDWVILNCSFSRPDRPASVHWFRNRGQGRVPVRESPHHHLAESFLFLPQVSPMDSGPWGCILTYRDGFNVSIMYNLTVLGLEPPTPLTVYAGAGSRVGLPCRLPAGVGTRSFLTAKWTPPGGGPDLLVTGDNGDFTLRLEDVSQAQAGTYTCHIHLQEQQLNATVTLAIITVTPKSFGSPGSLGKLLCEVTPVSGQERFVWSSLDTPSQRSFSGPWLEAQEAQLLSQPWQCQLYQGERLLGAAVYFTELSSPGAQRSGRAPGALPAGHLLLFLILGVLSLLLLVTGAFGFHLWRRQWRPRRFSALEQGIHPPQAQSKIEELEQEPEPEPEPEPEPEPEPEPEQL

T2: mouse LAG-3 overexpressed on CHO cells (mouse, UniProt Q61790 24-521)
T2 construct: whole, on cells; also called CHO-mLAG-3 cells; mouse LAG-3 on the cell surface
T2 sequence (looked up): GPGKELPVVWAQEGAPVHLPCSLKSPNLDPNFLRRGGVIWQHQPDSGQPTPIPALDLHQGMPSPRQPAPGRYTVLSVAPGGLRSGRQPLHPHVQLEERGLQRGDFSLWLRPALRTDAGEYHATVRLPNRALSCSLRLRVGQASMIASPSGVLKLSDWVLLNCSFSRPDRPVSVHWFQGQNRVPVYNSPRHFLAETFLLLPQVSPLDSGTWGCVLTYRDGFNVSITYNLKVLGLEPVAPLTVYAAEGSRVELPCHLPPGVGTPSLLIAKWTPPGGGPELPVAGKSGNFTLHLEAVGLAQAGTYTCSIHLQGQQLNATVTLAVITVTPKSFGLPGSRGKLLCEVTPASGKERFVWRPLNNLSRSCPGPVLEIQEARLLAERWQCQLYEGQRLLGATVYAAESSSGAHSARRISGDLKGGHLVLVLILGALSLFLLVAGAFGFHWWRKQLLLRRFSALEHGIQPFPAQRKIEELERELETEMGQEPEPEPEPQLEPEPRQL

B1: ADI-31851 (antibody, human IgG4 S228P, kappa, F234A L235A, V domains shown)
VH: QLQLQESGPGLVKPSETLSLTCTVSGGSISSPDYYWGWIRQPPGKGLEWIGSIVYSGYTYYNPSLKSRVTISVDTSKNQFSLKLSSVTAADTAVYYCARVRTWDQSFDIWGQGTMVTVSS
VL: DIQMTQSPSSLSASVGDRVTITCQAGQDISNYLNWYQQKPGKAPKLLIYDASNLETGVPSRFSGSGSGTDFTFTISSLQPEDIATYYCQQVLELPPWTFGGGTKVEIKR
notes: IgG4 heavy chain constant region with kappa light chain; expressed in HEK293 cells
B2: ADI-31853 (antibody, human IgG4 S228P, kappa, F234A L235A, V domains shown)
VH: B1 VH with S30Y, P32E, D33S, Q105A, S106A
VL: B1 VL with G26S
notes: as for B1

Key:
[1] = biological target: T1, LAG-3 on activated human CD4+ T cells; assay: flow cytometry on activated human CD4+ T cells, MFI curve
Experimental: CD4+ T cell isolation: This was performed according to the ‘Untouched CD4+ T cell isolation’ kit instructions (11346D, Invitrogen). PBMCs were left for 2 h before the cell suspension was pipetted into a 15-mL centrifugation tube. The cells were centrifuged at 200 g for 10 min, and the precipitate was resuspended with 500 μL of a separating medium, 100 μL of AB type serum and 100 μL of purified antibody. The mixture was incubated for 20 min at 4° C., and washed once with the separating medium. 500 μL of a Bead Buffer (Invitrogen) was added for an incubation of 15 min, and the beads were then removed by a magnetic field. The mixture was washed once with a T cell culture medium, and resuspended with 8 mL of a culture medium. The resulting mixture was then incubated at 37° C. in presence of 6% CO₂.
According to the ratio of magnetic beads to CD4⁺ T cells equivalent to 1:1, anti-CD3/CD28 magnetic beads (Gibco) were added to CD4⁺ T cells for stimulation for 3 days. The cell density was adjusted to 1×10⁶/mL. The cells were loaded into a first well, 150 μL/well, and into other wells, 100 μL/well. […] The samples were mixed well. […] The mixture was resuspended in 60 μL of PBS and analyzed by flow cytometry. The flow cytometry was performed on an Accuri C6 system (BD Biosciences), and a concentration-dependent curve was fitted with GraphPad according to the mean fluorescence intensity (MFI).

[2] = biological target: T2, mouse LAG-3 overexpressed on CHO cells; assay: flow cytometry (MFI) on CHO cells overexpressing mouse LAG-3; value from the EC50 table on the sheet, which has no unit of its own (concentration axis in nM); the curve has no plateau
Experimental: (§1) The cells were incubated on ice for 30 min. The cells were then washed at least twice prior to addition of a secondary antibody (a PE-labeled goat anti-human IgG antibody, Southern Biotech, final concentration […]) diluted in 1:100, and incubated on ice (protected from light) for 30 minutes. The cells were washed at least twice and analyzed by flow cytometry. The flow cytometry assay was performed on an Accuri C6 system (BD Biosciences), and a concentration-dependent curve was fitted with GraphPad according to the mean fluorescence intensity (MFI).

[3] = biological target: T2, mouse LAG-3 overexpressed on CHO cells; assay: flow cytometry on CHO-mLAG-3 cells, MFI curve
Experimental: as §1

| Binder | EC50 [1] [nM] | EC50 [2] [nM] | EC50 [3] [nM] |
| --- | --- | --- | --- |
| B1 | 0.013 | ~12100 | – |
| B2 | 0.011 | – | 42.3 |
